The text below walks through data of the supplement of paper PMC5998384.

The test system of data set [1] is HeLa Kyoto. Description: solubility change mitosis vs G1/S (difference of NP-40 vs SDS log2 ratios) (log2 ratio difference); higher = more soluble in mitosis.
Data set [2] relates to HeLa Kyoto. Kind of data set: thermal stability score vs G1/S (z-score of summed log2 fold changes over temperatures); higher = more thermally stable than in G1/S.
For data set [3], the system named is HeLa Kyoto. Kind of data set: solubility in G1/S (NP-40 vs SDS abundance) (log2 ratio); higher = more soluble. Particulars: cell cycle stage: G1/S.
The test system of data set [4] is HeLa Kyoto. Description: melting temperature (median over replicates), in situ; higher = more thermally stable.
Where [5] appears, read: cell cycle stage: early G1 (4.5 h after nocodazole release).
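Throughout, for melting temperature (median over replicates), in situ: HeLa Kyoto cells synchronized by double thymidine or nocodazole block, proteins quantified by TMT10plex mass spectrometry, three independent biological replicates.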
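Throughout, for solubility change mitosis vs G1/S (difference of NP-40 vs SDS log2 ratios): synchronized HeLa Kyoto cells (double thymidine block for G1/S, nocodazole release for mitosis), protein amounts in NP-40 versus SDS lysates quantified by mass spectrometry, three biological replicates.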
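Throughout, for solubility in G1/S (NP-40 vs SDS abundance): HeLa Kyoto cells arrested at G1/S by double thymidine block, proteins quantified by TMT10plex mass spectrometry in mild NP-40 versus SDS extracts, three biological replicates.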
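Throughout, for thermal stability score vs G1/S (z-score of summed log2 fold changes over temperatures): synchronized HeLa Kyoto cells, proteins quantified by TMT10plex mass spectrometry, three biological replicates, mitosis taken 0.5 h after nocodazole release, G1/S directly after double thymidine block.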

Turning to “MDCSLVRTLVHRYCAGEENWVDSRTIYVGHREPPPGAEAYIPQRYPDNRIVSSKYTFWNFIPKNLFEQFRRVANFYFLIIFLVQLIIDTPTSPVTSGLPLFFVITVTAIKQGYEDWLRHKADNAMNQCPVHFIQHGKLVRKQSRKLRVGDIVMVKEDETFPCDLIFLSSNRGDGTCHVTTASLDGESSHKTHYAVQDTKGFHTEEDIGGLHATIECEQPQPDLYKFVGRINVYSDLNDPVVRPLGSENLLLRGATLKNTEKIFGVAIYTGMETKMALNYQSKSQKRSAVEKSMNAFLIVYLCILISKALINTVLKYMWQSEPFRDEPWYNQKTESERQRNLFLKAFTDFLAFMVLFNYIIPVSMYVTVEMQKFLGSYFITWDEDMFDEETGEGPLVNTSDLNEELGQVEYIFTDKTGTLTENNMEFKECCIEGHVYVPHVICNGQVLPESSGIDMIDSSPSVNGREREELFFRALCLCHTVQVKDDDSVDGPRKSPDGGKSCVYISSSPDEVALVEGVQRLGFTYLRLKDNYMEILNRENHIERFELLEILSFDSVRRRMSVIVKSATGEIYLFCKGADSSIFPRVIEGKVDQIRARVERNAVEGLRTLCVAYKRLIQEEYEGICKLLQAAKVALQDREKKLAEAYEQIEKDLTLLGATAVEDRLQEKAADTIEALQKAGIKVWVLTGDKMETAAATCYACKLFRRNTQLLELTTKRIEEQSLHDVLFELSKTVLRHSGSLTRDNLSGLSADMQDYGLIIDGAALSLIMKPREDGSSGNYRELFLEICRSCSAVLCCRMAPLQKAQIVKLIKFSKEHPITLAIGDGANDVSMILEAHVGIGVIGKEGRQAARNSDYAIPKFKHLKKMLLVHGHFYYIRISELVQYFFYKNVCFIFPQFLYQFFCGFSQQTLYDTAYLTLYNISFTSLPILLYSLMEQHVGIDVLKRDPTLYRDVAKNALLRWRVFIYWTLLGLFDALVFFFGAYFVFENTTVTSNGQIFGNWTFGTLVFTVMVFTVTLKLALDTHYWTWINHFVIWGSLLFYVVFSLLWGGVIWPFLNYQRMYYVFIQMLSSGPAWLAIVLLVTISLLPDVLKKVLCRQLWPTATERVQTKSQCLSVEQSTIFMLSQTSSSLSF [ATP11A]”, the “solubility change mitosis (log2)” value in data set [1] worked out at 0.163. The results for the thermal stability score in data set [2] (setting [5]) and in data set [2] (cell cycle stage: mitosis) were -1.06 and -0.922, respectively. Further, in data set [3], the “solubility in G1/S (log2)” value was -0.526. Further, the melting temperature in data set [4] (cell cycle stage: G1/S) and in data set [4] (cell cycle stage: mitosis) was 53.8 °C each time.

“MDDFERRRELRRQKREEMRLEAERIAYQRNDDDEEEAARERRRRARQERLRQKQEEESLGQVTDQVEVNAQNSVPDEEAKTTTTNTQVEGDDEAAFLERLARREERRQKRLQEALERQKEFDPTITDASLSLPSRRMQNDTAENETTEKEEKSESRQERYEIEETETVTKSYQKNDWRDAEENKKEDKEKEEEEEEKPKRGSIGENQVEVMVEEKTTESQEETVVMSLKNGQISSEEPKQEEEREQGSDEISHHEKMEEEDKERAEAERARLEAEERERIKAEQDKKIADERARIEAEEKAAAQERERREAEERERMREEEKRAAEERQRIKEEEKRAAEERQRIKEEEKRAAEERQRIKEEEKRAAEERQRARAEEEEKAKVEEQKRNKQLEEKKHAMQETKIKGEKVEQKIEGKWVNEKKAQEDKLQTAVLKKQGEEKGTKVQAKREKLQEDKPTFKKEEIKDEKIKKDKEPKEEVKSFMDRKKGFTEVKSQNGEFMTHKLKHTENTFSRPGGRASVDTKEAEGAPQVEAGKRLEELRRRRGETESEEFEKLKQKQQEAALELEELKKKREERRKVLEEEEQRRKQEEADRKLREEEEKRRLKEEIERRRAEAAEKRQKMPEDGLSDDKKPFKCFTPKGSSLKIEERAEFLNKSVQKSSGVKSTHQAAIVSKIDSRLEQYTSAIEGTKSAKPTKPAASDLPVPAEGVRNIKSMWEKGNVFSSPTAAGTPNKETAGLKVGVSSRINEWLTKTPDGNKSPAPKPSDLRPGDVSSKRNLWEKQSVDKVTSPTKV [CALD1]”: the “solubility change mitosis (log2)” value in data set [1] worked out at 0.119. The thermal stability score was 0.295 in data set [2] (setting [5]) and -2.2 in data set [2] (cell cycle stage: mitosis). Besides, in data set [3], the “solubility in G1/S (log2)” value is 0.0624. Moreover, the melting temperature in data set [4] (cell cycle stage: G1/S) and in data set [4] (cell cycle stage: mitosis) was 57.1 °C in each case.

On to “MDDSEVESTASILASVKEQEAQFEKLTRALEEERRHVSAQLERVRVSPQDANPLMANGTLTRRHQNGRFVGDADLERQKFSDLKLNGPQDHSHLLYSTIPRMQEPGQIVETYTEEDPEGAMSVVSVETSDDGTTRRTETTVKKVVKTVTTRTVQPVAMGPDGLPVDASSVSNNYIQTLGRDFRKNGNGGPGPYVGQAGTATLPRNFHYPPDGYSRHYEDGYPGGSDNYGSLSRVTRIEERYRPSMEGYRAPSRQDVYGPQPQVRVGGSSVDLHRFHPEPYGLEDDQRSMGYDDLDYGMMSDYGTARRTGTPSDPRRRLRSYEDMIGEEVPSDQYYWAPLAQHERGSLASLDSLRKGGPPPPNWRQPELPEVIAMLGFRLDAVKSNAAAYLQHLCYRNDKVKTDVRKLKGIPVLVGLLDHPKKEVHLGACGALKNISFGRDQDNKIAIKNCDGVPALVRLLRKARDMDLTEVITGTLWNLSSHDSIKMEIVDHALHALTDEVIIPHSGWEREPNEDCKPRHIEWESVLTNTAGCLRNVSSERSEARRKLRECDGLVDALIFIVQAEIGQKDSDSKLVENCVCLLRNLSYQVHREIPQAERYQEAAPNVANNTGPHAASCFGAKKGKDEWFSRGKKPIEDPANDTVDFPKRTSPARGYELLFQPEVVRIYISLLKESKTPAILEASAGAIQNLCAGRWTYGRYIRSALRQEKALSAIADLLTNEHERVVKAASGALRNLAVDARNKELIGKHAIPNLVKNLPGGQQNSSWNFSEDTVISILNTINEVIAENLEAAKKLRETQGIEKLVLINKSGNRSEKEVRAAALVLQTIWGYKELRKPLEKEGWKKSDFQVNLNNASRSQSSHSYDDSTLPLIDRNQKSDKKPDREEIQMSNMGSNTKSLDNNYSTPNERGDHNRTLDRSGDLGDMEPLKGTTPLMQDEGQESLEEELDVLVLDDEGGQVSYPSMQKI [CTNND1]”, for which the “solubility change mitosis (log2)” value in data set [1] is -0.0563. Moreover, the thermal stability score in data set [2] (setting [5]) was -0.443; in data set [2] (cell cycle stage: mitosis), 1.3. In addition, in data set [3], the “solubility in G1/S (log2)” value came to 0.228. Also, the melting temperature in data set [4] (cell cycle stage: G1/S) stood at 48.1 °C; in data set [4] (cell cycle stage: mitosis) it was 48 °C.

In the case of “MDEAVGDLKQALPCVAESPTVHVEVHQRGSSTAKKEDINLSVRKLLNRHNIVFGDYTWTEFDEPFLTRNVQSVSIIDTELKVKDSQPIDLSACTVALHIFQLNEDGPSSENLEEETENIIAANHWVLPAAEFHGLWDSLVYDVEVKSHLLDYVMTTLLFSDKNVNSNLITWNRVVLLHGPPGTGKTSLCKALAQKLTIRLSSRYRYGQLIEINSHSLFSKWFSESGKLVTKMFQKIQDLIDDKDALVFVLIDEVESLTAARNACRAGTEPSDAIRVVNAVLTQIDQIKRHSNVVILTTSNITEKIDVAFVDRADIKQYIGPPSAAAIFKIYLSCLEELMKCQIIYPRQQLLTLRELEMIGFIENNVSKLSLLLNDISRKSEGLSGRVLRKLPFLAHALYVQAPTVTIEGFLQALSLAVDKQFEERKKLAAYI [TRIP13]”, the “solubility change mitosis (log2)” value in data set [1] was -0.116. Besides, the thermal stability score in data set [2] (setting [5]) turned out to be 3.83; in data set [2] (cell cycle stage: mitosis) it was 2.94. For the same sequence, the “solubility in G1/S (log2)” value in data set [3] is -0.0812. In addition, the melting temperature in data set [4] (cell cycle stage: G1/S) was determined as 50.9 °C; in data set [4] (cell cycle stage: mitosis), 51.3 °C.
